Experimental findings from paper PMC10705891 are described below.

The data set has as its target HopU1 (Pseudomonas syringae, UniProt Q88A91 1-264). As to the kind of experiment: MST. Conditions: protein: recombinant; tags: C-terminal His6 (pET22b NdeI/XhoI, Ni-NTA; tag position implied by vector).

B1: H2 RNA aptamer (structured_RNA)
RNA: GCCACCAACGACAUUACGCAUUGCUUCUAAAGGGUGUGCCGUUGAUAUAAAUAGUGCCCAU
For B1, the Kd was 6.41 ± 0.48 nM.

B2: H1 RNA aptamer (structured_RNA)
RNA: GCCACCAACGACAUUUUGUCAAUCUGUAGAAAAAAUCAGGGUUGAUAUAAAUAGUGCCCAU
As for B2, the Kd came to 6.71 ± 0.69 nM.

A word on the Kd: it is the equilibrium constant for the complex coming apart.
